Experiments:
[1] = system: captor antibody against the N-terminal PTH fragment (anti-hPTH(1-34)); experiment: Spiking experiments with hPTH(1-37) fragments, Nichols IRMA intact PTH test; type: binding, goat; settings: 1000 pM hPTH(1-37) added
Procedure: The Nichols Intact PTH Assay (Nichols Institute, San Juan Capistrano, Calif., U.S.A) is a double binding immunoradiometry assay (IRMA) with two polyclonal goat antibodies. […] The second detection antibody, marked with ^125Iodine, recognizes an epitope in the N-terminal section of the PTH (anti-hPTH(1-34)). The sample was incubated at the same time with the antibody coated beads and the ^125Iodine marked detection antibody overnight (12±2 h) at room temperature. After the incubation, the beads were washed and the radioactivity adhering to the solid phase measured in a gamma counter (LKB1277 Gamma Master from Perkin-Elmer). The dose measurement curve (MultiCalc Software) between bound radioactivity and concentration in the sample was determined strictly in accordance with the manufacturer's instructions via a standard measured at the same time. […]
The standard sample and the plasma pools where in each case treated with three different concentrations of hPTH(1-37) fragments in five different oxidation and state forms and then the recovered PTH contents determined. […]
There were produced from each fragment solution three initial concentrations (1000 nM, 100 nM and 10 nM). A further dilution of the fragment solutions 1:100 in the standard and in the pool plasma yielded final concentrations of […] in the sample to be analyzed. […]

[2] = system: captor antibody used in the Roche Elecsys 2010 PTH test; experiment: Oxidation and reduction of plasma samples, measured with Roche Elecsys 2010 PTH test
Procedure: The Roche Elecsys™ PTH assay is an electrochemiluminescence immunoassay (ECLIA) on the fully automatic immunoanalyzer Elecsys ^R2010. The epitope recognized by the biotinylated captor antibody contains the PTH amino acids 26 to 32 and the monoclonal ruthenium detection antibody recognizes, in accordance with the information from the manufacturer, an epitope in the region of the PTH amino acids 55 to 64. Sample and antibodies were incubated together for 9 minutes at 37° C., Streptavidin coated paramagnetic beads introduced to the incubation mixture, and finally incubated for further 9 minutes. After magnetic separation of the bonded conjugates from the free conjugates on an electrode surface the luminescence was determined and the end PTH concentration determined via a recalibrated master curve. The interassay variance in the lower and upper normal region was less than 7% CV and in the high concentration region 5% CV.
(§1) 30 plasma samples of dialysis patients and ESRD patients (ESRD=end stage renal disease) were selected at random and oxidized with hydrogen peroxide (30%; end concentration: 1.5 Mol/L) or reduced with sodium boron hydride (NaBH4, aqueous solution of 100 nMol/L). All samples, treated and untreated, where measured at the same time with the Roche Elecsys™2010 and the Nichols IRMA test.
(§2) The oxidation was effected with 30% hydrogen peroxide solution. The hydrogen peroxide concentration in the incubation preparation was at 17% of the 30% solution. All samples were incubated for 45 minutes at 37° C., then also cooled down to −70° C., lyophilized and stored at −20° C. until the quantitative PTH determination.
Of 20 samples an aliquot of each in the ratio 1:1 (v/v) was treated and reduced with a 100 nMol NaBH4 solution. Further, of 10 oxidized samples in each case an aliquot was reverse reduced by the addition of a 100 nMol NaBH4 solution in the ratio 1:1. The samples were incubated for 45 minutes at room temperature and the reaction stopped on dry ice. After the lyophilization the samples were deep frozen at −20° C. until determination. The diagrams of FIGS. 5 to 11 show the results.

[3] = system: polyclonal antibodies employed in the Nichols test; experiment: Oxidation and reduction of plasma samples, measured with Nichols IRMA; set-up: species or system goat; settings: H2O2 oxidation
Procedure: The Nichols Intact PTH Assay (Nichols Institute, San Juan Capistrano, Calif., U.S.A) is a double binding immunoradiometry assay (IRMA) with two polyclonal goat antibodies. The captor antibody, immobilized in plastic beads, binds only in the middle or C-terminal section of the hPTH (anti-hPTH(39-89)). The second detection antibody, marked with ^125Iodine, recognizes an epitope in the N-terminal section of the PTH (anti-hPTH(1-34)). The sample was incubated at the same time with the antibody coated beads and the ^125Iodine marked detection antibody overnight (12±2 h) at room temperature. After the incubation, the beads were washed and the radioactivity adhering to the solid phase measured in a gamma counter (LKB1277 Gamma Master from Perkin-Elmer). The dose measurement curve (MultiCalc Software) between bound radioactivity and concentration in the sample was determined strictly in accordance with the manufacturer's instructions via a standard measured at the same time. The interassay variance in the normal and increased region was less than 10% CV.
as §1, §2
Of 20 samples an aliquot of each in the ratio 1:1 (v/v) was treated and reduced with a 100 nMol NaBH4 solution. Further, of 10 oxidized samples in each case an aliquot was reverse reduced by the addition of a 100 nMol NaBH4 solution in the ratio 1:1. […]

[4] = H2O2 oxidation, individual samples

| Molecule | signal reduction to % of the native measured sample [1] [%] | measurement value after oxidation, average, of the initial value ([2]; H2O2 oxidation, 45 minutes at 37° C., plasma of dialysis and ESRD patients) [%] | highest remaining measurement signal after oxidation, % of initial value [2, 4] [%] | lowest remaining measurement signal after oxidation, % of initial value [2, 4] [%] | measurement value after oxidation and reverse reduction, of the initial value ([2]; H2O2 then NaBH4) | concentration after oxidation, average, of the initial value [3] [%] | highest remaining concentration after oxidation, % of initial value (smallest reduction) ([3]; individual samples) [%] | lowest remaining concentration after oxidation, % of initial value (largest reduction) ([3]; individual samples) [%] |
| --- | --- | --- | --- | --- | --- | --- | --- | --- |
| hPTH(1-37): native hPTH(1-37) fragment of human parathyroid hormone, from IPF or Immundiagnostik AG (SVSEIQLMHNLGKHLNSMERVEWLRKKLQDVHNFVAL; Parathyroid hormone; UniProt P01270 32-68, looked up, fragment) | 50 |  |  |  |  |  |  |  |
| PTH: parathyroid hormone, single polypeptide chain of 84 amino acids, endogenous in plasma samples of dialysis patients (protein, UniProt P01270 32-115, looked up, Parathyroid hormone, parathyroid hormone, single polypeptide chain of 84 amino acids, endogenous in plasma samples of dialysis patients) Parathyroid hormone: SVSEIQLMHNLGKHLNSMERVEWLRKKLQDVHNFVALGAPLAPRDAGSQRPRKKEDNVLVESHEKSLGEADKADVNVLTKAKSQ |  | 29 | 53 | 10 | ca. 50% | 76 | 98 | 33 |

Source: patent publication US7790398B2, “Method for determining effective parathormone activity in a sample” (priority 2001, dated 2010)
